Three molecules from patent US20260042834A1, “ANTI-CORTICOTROPIN-RELEASING HORMONE ANTIBODIES AND POLYCYSTIC OVARY SYNDROME” (HBM ALPHA THERAPEUTICS, INC., priority 2022, published 2026) can be followed below.

One assay has as its system human CRHR2. The assay can be described thus: CRH-induced luciferase reporter blocking assay, CHO-CRE-hCRHR2 cells. Particulars: CHO-CRE-hCRHR2 cells, 0.1 nM CRH. Type of assay: cell-based. An outline of the steps:
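CHO-CRE reporter cells stably expressing mouse or human CRHR2 were treated with serially diluted antibodies (8 points, 1:4) plus CRH at final 5 nM (mCRHR2) or 0.1 nM (hCRHR2), 4-6 hours at 37° C. CRE-driven luciferase read by luminescence after 10 min with detection reagent.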

In the next assay the test system is mouse CRHR2. The assay can be described thus: CRH-induced luciferase reporter blocking assay, CHO-CRE-mCRHR2 cells. Type of assay: cell-based. To be noted: CHO-CRE-mCRHR2 cells, 5 nM CRH. The gist of the method: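 CHO-CRE cells stably expressing mouse CRHR2 were seeded overnight, then given serially diluted antibodies (8 points, 1:4) together with CRH at 5 nM final. After 4–6 h at 37 °C, CRE-driven luciferase was read by Bio-Glo luminescence.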
A general note: A reporter such as luciferase makes a cellular process visible.

Assay [1] has as its system constitutively high plasma ACTH in Mrap1 KO mice. The assay can be described thus: Mrap1 KO mice constitutively high ACTH model. Type of assay: in vivo, mouse. To be noted: 20 mg/kg and 5 mg/kg, day 2 and day 16. The protocol: 8-10 week old wildtype female C57BL/6 mice were obtained from Charles River Laboratories. Mrap1 KO mice were obtained from Queen Mary University of London, UK. SSR125543A, a small molecule CRHR1 antagonist, was obtained from Axon Medchem (Cat #Axon 1799). Mouse Corticosterone (55-Corms-E01) and adrenocorticotropic hormone (ACTH) ELISA kits (21-ACTHU-E01) were obtained from ALPCO, USA. All procedures were carried out in accordance with the Guide for the Care and Use of Laboratory Animals of the National Institutes of Health. Protocols were approved by Charles River Laboratories Institutional Animal Care and Use Committee (IACUC).
To generate Mrap1 KO mice, Mrap1−/− male mice were bred with Mrap1+/− female mice. Corticosterone hormone replacement was performed by administering 50 μg/ml in drinking water to breeder cages when female mice were pregnant and their pregnancies palpable (approximately embryonic day 10). Drinking water was changed weekly, and treatment was stopped at weaning. Mice were uniquely identified with ear tags at the time of tail clipping to match future genotype with each mouse. DNA was extracted from tail tissue and used to genotype mice.
[…] On day 2 or 3, 14 and 28, 200 μl of blood was collected in EDTA tubes from the submandibular vein of each mouse. Plasma was separated using a refrigerated centrifuge (4° C. at 500×g for 10 min) and snap-frozen in dry ice for subsequent ACTH ELISA measurement.

In assay [2] the test system is human CRHR1 (hUCN1-induced). The assay can be described thus: Human UCN1-induced luciferase reporter assay, CHO-CRE-hCRHR1 cells. Type of assay: cell-based. To be noted: Table 10; 1 nM hUCN1. How it is done: CHO-CRE-hCRHR1 and CHO-CRE-hCRHR2 cells were harvested with trypsin-EDTA (Life Technologies, Cat #:12604-013). Cells were centrifuged at 1,000 rpm for 5 min and resuspended in growth medium. Cells were counted using a cell counter, seeded at 5,000 cells per 100 μl to 96-well flat plates, and incubated overnight. 50 μl of 4× serially diluted antibody (8 points, 1/3 diluted by growth medium) or CP 376395 hydrochloride (TOCRIS, Cat #:3212) (8 points, 1/10 diluted by growth medium) was added to plates, followed by 50 μl 4×hUCN1 (4× is 4 nM, final is 1 nM) to CHO-CRE-hCRHR1 cells or CHO-CRE-hCRHR2 cells. Plates were then incubated for 4-6 hours at 37° C. in a CO2 incubator. Following this, 60 μl of culture medium was removed, to which was added 60 μl of Bio-Glo luciferase, followed by incubation for 10 min at RT. Plates were then read in a luciferase plate reader (EnVision, PerkinElmer).

Assay [3] has as its target T1, N-terminal region plus central region, central region only, central region plus C-terminal region of CRH (Homo sapiens, UniProt P06850).
T1 construct: N-terminal region plus the central region (CT biotin), the central region only (NT biotin or CT biotin)
The assay can be described thus: ELISA determining the binding region of CRH. To be noted: dash = no binding. How it is done: Streptavidin (Thermo, Cat: 21125) was diluted in PBS to a concentration of 2 μg/ml. 100 μl of diluted streptavidin was added per well to ELISA microplates, and the plates were incubated overnight at 4° C. Plates were blocked with ELISA blocking solution (containing 2% w/v BSA, 0.05% (v/v) Tween-20, pH 7.4 PBS buffer) at 37° C. for 1 hour, and then incubated with 1 μg/mL N-terminal region plus the central region (CT biotin), the central region only (NT biotin or CT biotin), or the central region plus C-terminal region (NT biotin) of CRH for 1 hour at 37° C. Plates were then washed and incubated with diluted anti-CRH antibody (Ab) at 15 μg/ml (100 nM, 10 diluted, 8 points) for 1 hour at 37° C. Subsequently, plates were washed and incubated with HRP-conjugated goat anti-human IgG (H+L) antibody (Jackson, Cat: 109-035-088) at 37° C. for 1 hour. 100 μL of 3,3′,5,5′-tetramethylbenzidine (TMB) substrate (Biopanda, Cat: TMB-S-003) was added, and the plates were incubated at room temperature for 15 minutes. 100 μL of ELISA stopping solution (Solarbio, Cat #: C1058) was added to terminate the reaction, and the optical density at 450 nm (OD450 nm) was determined by an ELISA plate reader (Molecular Devices, Spectra max 384 plus).
On the technique in general: An ELISA detects its analyte on a solid surface through an enzyme-linked reagent.

Another assay has as its target T2, biotinylated CRH (Homo sapiens, UniProt P06850).
T2 construct: purchased GL Biochem 784751
T2 sequence (P06850 154-194): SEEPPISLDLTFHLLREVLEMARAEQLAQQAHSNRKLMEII
The assay can be described thus: Affinity determination with Octet. Type of assay: binding. The protocol:
Octet® Red 96e was used for affinity measurement. Octet® running buffer was prepared by diluting kinetics buffer 10× (Fortebio, Cat #18-1105) in PBS according to the manufacturer's instructions. Two columns of SA sensors (Fortebio, Cat #18-5019) were hydrated in running buffer for 10 mins, one for ligand capturing and the other for reference. Antibodies were 2-fold diluted and added into a 96-well plate. 30 nM biotinylated CRH (GL Biochem, Cat #784751) was captured by the first column of SA sensors for 20 seconds, while reference sensors were dipped into buffer wells. After a 60-second baseline step, sensors were dipped into analyte and buffer wells successively, with the association and dissociation time of 180 seconds and 800 seconds, respectively. Sensors were regenerated in glycine pH1.5 (Cytiva, Cat #BR-1003-54) before the next cycle. […] Signals of reference wells and reference sensors were subtracted by selecting “Double reference” before data fitting.
(Biolayer interferometry detects binding as a change in optical thickness at a sensor tip.)

Where [4] appears, read: central plus C-terminal region CRH peptide, NT-biotin (SEQ ID NO: 483), read-out: ELISA EC50 C-Ter-CRH (NT-Bion).
Where [5] appears, read: central region CRH peptide, CT-biotin (SEQ ID NO: 485), read-out: ELISA EC50 Central-CRH (CT-Bion).
Setting [6] is: central region CRH peptide, NT-biotin (SEQ ID NO: 484), read-out: ELISA EC50 Central-CRH (NT-Bion).

Numbering of substitutions follows the chain as printed. Read-outs that look alike come from different tables or passages of the source. A value given as a limit tells only on which side of the number the result lay.

B1: PR302038: humanized variant of Series 5 mAb PR301777; VH SEQ ID NO: 256, VL SEQ ID NO: 311 (antibody, V domains shown)
VH: EMQLVESGGGLVQPGGSLRLSCAASGFTFSNYWMNWVRQAPGKGLEWVAEIRLKSNNYATHYAESVKGRFTISRDDSKSSVYLQMNSLKTEDTAVYYCTVGTLVYWGQGTLVTVSS
VL: EIVLTQSPATLSLSPGERATLSCRASQSVSTSTYNYMHWFQQKPGQAPRLLIKFASNLESGIPARFSGSGSGTDFTLTISSLEPEDTAVYYCQHSWEIPYTFGQGTKLEIK
modifications: PR302036 VH, PR302038 VH, PR302041 VH; PR302031 VL, PR302038 VL, PR302045 VL, PR302052 VL, PR302066 VL
Usually IC50 stands for the concentration at which inhibition is half-maximal. Higher therefore signals weaker potency. As to B1, the half-maximal inhibitory concentration (IC50) in the assay with human CRHR2 was determined as 5.96 nM; in the assay with mouse CRHR2, 6.17 nM. The “plasma ACTH concentrations in Mrap1 KO mice, dose dependence” value in assay [1] is given as “reduced plasma ACTH concentrations in Mrap1 KO mice, in a dose dependent manner”.

B2: PR302309-8: humanized variant of Series 7 mAb PR302309; VH SEQ ID NO: 261, VL SEQ ID NO: 318 (antibody, V domains shown)
VH: QIQLVQSGSELKKPGASVKVSCKASGYTFTNYGMNWVRQAPGQGLEWMGWINTYTGEPIYTDDFKGRFVFSLDTSVSTAYLQISSLKAEDTAVYYCSRSTMITTGGVFAYWGQGTLVTVSS
VL: DVVMTQSPLSLPVTLGQPASISCRSSQTIVHSDGNTYLEWYQQRPGQSPRLLIYKVSNRFSGVPDRFSGSGSGTDFTLKISRVEAEDLGVYYCFQGSHVPWTFGGGTKVEIK
modifications: PR302309-10 VH, PR302309-11 VH, PR302309-12 VH, PR302309-14 VH,PR302309-7 VH, PR302309-8 VH, PR302309-9 VH; PR302309-17 VL, PR302309-18 VL, PR302309-19 VL, PR302309-2 VL,PR302309-8 VL
Usually EC50 stands for the midpoint of the concentration-response curve. For orientation: kon means the rate constant with which the complex forms. High values mean faster complex formation, low ones slower complex formation. As for B2, in assay [2], the “CHO-CRE-hCRHR1 1 nM hUCH1 IC50” value is recorded as “No Inhibition”. Further, the concentration for a half-maximal effect (EC50) in assay [3] (setting [4]), in assay [3] (setting [5]) and in assay [3] (setting [6]) was greater than 100 nM in each case. Also, in the assay with biotinylated CRH, the “kdis” value was found to be 0.000136 s⁻¹. In addition, in the assay with biotinylated CRH, the “kon” value was determined as 266000 M⁻¹ s⁻¹.

B3: PR302309-11: humanized variant of Series 7 mAb PR302309; VH SEQ ID NO: 261, VL SEQ ID NO: 315 (antibody, V domains shown)
VH: B2 VH
VL: B2 VL with V2I, S7T, L11S, Y41L, S48P, S72A, L88V
modifications: PR302309-10 VH, PR302309-11 VH, PR302309-12 VH, PR302309-14 VH,PR302309-7 VH, PR302309-8 VH, PR302309-9 VH; PR302309-11 VL, PR302309-5 VL
With B3, the “CHO-CRE-hCRHR1 1 nM hUCH1 IC50” value in assay [2] is “No Inhibition”. The EC50 in assay [3] (setting [4]), in assay [3] (setting [5]) and in assay [3] (setting [6]) was greater than 100 nM each time. In the assay with biotinylated CRH, the “kon” value was found to be 154000 M⁻¹ s⁻¹.
